To fix the notation:
B1: OX-2C11-CT-4E12-IgG1-SI (bispecific antibody, V domains shown)
VH 1: EVQLVQSGGGLVKPGGSLRLSCAASGFTFSDSYMSWIRQAPGKGLEWISYISSSISYTKYADSVKGRFTISRDNAKNSLYLEMNSLRAEDTAVYYCARDYYDSGNYYYYFDYWGQGTLVTVSS
VH 2: QVQLVESGPGLVKPSETLSLTCAVSGGSISSSSYYWGWIRQPPGKGLEWIGNIYYTGITYYNPSLKSRITISVDTSKNQFSLKLSSVTAADTAVYYCARVGGYSYGYLFDYWGQGTLVTVSS
VL: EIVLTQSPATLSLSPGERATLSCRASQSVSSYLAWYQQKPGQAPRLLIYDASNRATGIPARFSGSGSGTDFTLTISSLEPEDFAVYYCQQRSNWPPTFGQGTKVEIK
notes: 1+1 knobs-into-holes human IgG1 with common light chain; SI mutations (S239D, I332E, EU) in Fc
B2: OX-2F2-CT-3D2-IgG1-SI (bispecific antibody, V domains shown)
VH 1: QVQLVESGGGLVQPGGSLRLSCAASGFTVSNNYMSWVRQAPGKGLEWVSVIYGGGDTYYADSVKGRFTISRDNSQNTLYLQMTSLRADDTAVYYCARGLTIFGVVPFDPWGQGTLVTVSS
VH 2: QVQLVESGPGLVKPSETLSLTCTVSGDSIRSSHYYWGWIRQPPGKGLEWIGSIYFNGITYYSPSLKSRVTISVDTSKNQFSLKLTSVTAADTAVFYCARHNNYYDSSGYWYYFDYWGQGTLVTVSS
VL: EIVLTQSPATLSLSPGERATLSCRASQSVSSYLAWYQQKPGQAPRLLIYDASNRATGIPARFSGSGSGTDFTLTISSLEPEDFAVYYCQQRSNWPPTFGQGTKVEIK
notes: 1+1 knobs-into-holes human IgG1 with common light chain; SI mutations (S239D, I332E, EU)
B3: CT-5E3-OX-2F2-IgG1-SI (bispecific antibody, V domains shown)
VH 1: QVQLVESGPGLVKPSETLSLTCTVSGGSISSSSYYWGWIRQPPGKGLEWIGSIYYTGNTYYNPSLKSRVTISVDTSKNQFSLKLSSVTAADTAVYYCARVGFSYGHPFDYWGQGTLVTVSS
VH 2: B2 VH 1
VL: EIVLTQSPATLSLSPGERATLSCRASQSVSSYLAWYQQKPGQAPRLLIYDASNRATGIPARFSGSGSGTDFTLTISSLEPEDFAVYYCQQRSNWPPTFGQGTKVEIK
notes: as for B2
B4: OX-2C11-IgG1 (antibody, V domains shown)
VH: B1 VH 1
VL: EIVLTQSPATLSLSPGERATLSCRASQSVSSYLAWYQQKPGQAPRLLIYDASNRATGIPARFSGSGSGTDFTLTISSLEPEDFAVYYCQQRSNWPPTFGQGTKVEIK
notes: Human anti-OX40 antibody; IgG1 constant regions
B5: OX-1F9-IgG1 (antibody, V domains shown)
VH: EVQLVESGGGLVQPGGSLRLSCAASGFTFSNYEMNWVRQAPGKGLEWISYIGSSGSTIYYADSVKGRFTISRDNAKNSLYLQMNSLRAEDTAVYYCAVDYIFDYWGQGTLVTVSS
VL: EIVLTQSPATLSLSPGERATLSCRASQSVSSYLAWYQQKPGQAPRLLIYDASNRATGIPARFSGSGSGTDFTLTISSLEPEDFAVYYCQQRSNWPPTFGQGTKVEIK
notes: Human anti-OX40 antibody from RenLite mice
B6: OX-2F5-IgG1 (antibody, V domains shown)
VH: QVQLVESGPTLVKPTQTLTLTCTFSGFSLSTSGVGVGWIRQSPGKALEWLSLIYWDDDKRYNPSLKSRLTVTKDTSKNQVVLAMTNMDPVDTATYFCAHRAHSSSSSDYWGQGTLVTVSS
VL: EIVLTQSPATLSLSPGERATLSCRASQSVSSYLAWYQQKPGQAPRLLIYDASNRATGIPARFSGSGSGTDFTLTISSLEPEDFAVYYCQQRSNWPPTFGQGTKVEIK
notes: as for B4
B7: OX-2F2-IgG1 (antibody, V domains shown)
VH: B2 VH 1
VL: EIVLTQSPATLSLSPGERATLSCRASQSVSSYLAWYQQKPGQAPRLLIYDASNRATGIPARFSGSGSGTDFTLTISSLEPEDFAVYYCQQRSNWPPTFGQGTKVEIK
notes: as for B4
B8: OX-H7-IgG1 (antibody, V domains shown)
VH: QITLKESGPTLVKPAQTLTLTCTFSGFSLSTSGVGVGWIRQPPGKALEWLALIYWDDDKLYSPSLKSRLTITKDTSKNQVVLAMTNMDPVDTATYYCAHSQLGRDDYWGQGTLVTVSS
VL: EIVLTQSPATLCLSPGERATLSCRASQSVSNYLAWYQQKPGQAPRLLIYAASSRATGIPARFSGSGSGTDFTLTISTLEPEDFAVYYCQQRRDWPPTFGQGTKVEIK
notes: Monoclonal anti-OX40 antibody, IgG1 constant regions; also called 040-H7-IgG1
B9: CT-5E3-IgG1 (antibody, V domains shown)
VH: B3 VH 1
VL: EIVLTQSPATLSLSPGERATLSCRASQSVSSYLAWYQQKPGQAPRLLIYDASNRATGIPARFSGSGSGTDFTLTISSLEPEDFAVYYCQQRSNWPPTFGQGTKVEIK
notes: Human anti-CTLA4 antibody; IgG1 constant regions
B10: CT-5F9-IgG1 (antibody, V domains shown)
VH: QVQLVESGPGLLKPSETLSLTCTVSGGSISSSSSYWGWIRQPPGKGLEWIGSIYYSGITYYNPSLKSRVTISVDTSKNQFSLKVSSVTAADTAVYYCARLNWNQVFDYWGQGTLVTVSS
VL: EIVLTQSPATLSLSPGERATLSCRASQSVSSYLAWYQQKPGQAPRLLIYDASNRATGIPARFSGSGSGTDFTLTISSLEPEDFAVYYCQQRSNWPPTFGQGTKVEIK
notes: as for B9
B11: CT-4E12-IgG1 (antibody, V domains shown)
VH: B1 VH 2
VL: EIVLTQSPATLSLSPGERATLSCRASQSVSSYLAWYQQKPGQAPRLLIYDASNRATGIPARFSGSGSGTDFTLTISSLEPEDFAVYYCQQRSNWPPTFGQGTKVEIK
notes: as for B9
B12: OX-2F5-CT-3D2-IgG1-SI (bispecific antibody, V domains shown)
VH 1: B6 VH
VH 2: B2 VH 2
VL: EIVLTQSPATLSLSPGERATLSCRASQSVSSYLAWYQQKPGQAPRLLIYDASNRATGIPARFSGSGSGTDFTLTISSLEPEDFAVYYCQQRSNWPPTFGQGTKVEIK
notes: as for B2
B13: OX-1F9-CT-3D2-IgG1-SI (bispecific antibody, V domains shown)
VH 1: B5 VH
VH 2: B2 VH 2
VL: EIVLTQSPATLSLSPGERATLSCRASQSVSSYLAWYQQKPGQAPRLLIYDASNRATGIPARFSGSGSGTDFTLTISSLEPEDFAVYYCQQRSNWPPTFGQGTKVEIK
notes: as for B2

The target in one assay is T1, Cynomolgus/Rhesus macaque CTLA-4 Protein, His Tag (Cynomolgus/Rhesus macaque).
T1 construct: Bought recombinant protein; also called fasCTLA4-His; FasCTLA4-His
Nature of the assay: SPR Biacore 8K, Protein A chip; antibody captured, antigen analyte. A general note: In SPR one partner is held on a chip, and binding of the other changes the refractive index at the surface.
B1 displayed an equilibrium dissociation constant (Kd) of 11.2 nM, a koff of 0.000422 s⁻¹ and a kon of 37800 M⁻¹ s⁻¹.

B2: the Kd is 4.77 nM, the koff is 0.000612 s⁻¹ and the kon was determined as 128000 M⁻¹ s⁻¹.

B3: the Kd was determined as 8.36 nM, the koff is 0.00105 s⁻¹ and the kon was 126000 M⁻¹ s⁻¹.

The next assay addresses T2, Human CTLA4 protein having a His-Tag (human, UniProt P16410 37-162, limits assumed).
T2 construct: Bought recombinant protein; also called hCTLA4-His; hCTLA4; not shown: His tag
T2 sequence (looked up): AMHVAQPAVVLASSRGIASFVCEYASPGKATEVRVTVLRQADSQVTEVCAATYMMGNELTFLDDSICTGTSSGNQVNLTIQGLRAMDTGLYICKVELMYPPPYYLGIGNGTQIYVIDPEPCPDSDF
The description is as above.
Turning to B1, the Kd is 10.2 nM, the koff was found to be 0.00023 s⁻¹ and the kon is 22400 M⁻¹ s⁻¹.

As for B2, binding was characterised by a dissociation constant (Kd) of 14.2 nM, the koff was found to be 0.000774 s⁻¹ and the kon was determined as 54600 M⁻¹ s⁻¹.

B3: binding was characterised by a dissociation constant (Kd) of 27.8 nM, the koff was found to be 0.000909 s⁻¹ and the kon worked out at 32700 M⁻¹ s⁻¹.

In a further assay the target is T3, Human OX40 protein having a His-Tag (human, UniProt P43489 29-216, limits assumed).
T3 construct: Bought recombinant protein; also called hOX40-His; hOX40; not shown: His tag
T3 sequence (looked up): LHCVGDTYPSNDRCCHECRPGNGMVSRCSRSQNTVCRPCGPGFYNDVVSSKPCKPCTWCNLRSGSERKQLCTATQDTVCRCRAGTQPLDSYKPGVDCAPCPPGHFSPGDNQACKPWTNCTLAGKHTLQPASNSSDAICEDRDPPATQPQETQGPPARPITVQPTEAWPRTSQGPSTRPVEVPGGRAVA
The assay is described as above.
In turn, B4 returned a Kd of 7.59 nM, a koff of 0.000412 s⁻¹ and a kon of 54400 M⁻¹ s⁻¹.

In turn, B5 displayed a Kd of 22.6 nM, a koff of 0.00744 s⁻¹ and a kon of 330000 M⁻¹ s⁻¹.

In the case of B6, the Kd worked out at 45.6 nM, the koff amounted to 0.0343 s⁻¹ and the kon was 753000 M⁻¹ s⁻¹.

In turn, B7 gave a Kd of 20 nM, a koff of 0.0217 s⁻¹ and a kon of 1.09e+06 M⁻¹ s⁻¹.

Consider B8, for which the Kd was 13.8 nM, the koff amounted to 0.00824 s⁻¹ and the kon worked out at 598000 M⁻¹ s⁻¹.

Another assay has as its target T2, Human CTLA4 protein having a His-Tag. The assay is described as above. The source holds these as a separate data set.
In turn, B9 registered a Kd of 21.8 nM, a koff of 0.000674 s⁻¹ and a kon of 30900 M⁻¹ s⁻¹.

In the case of B10, binding was characterised by a dissociation constant (Kd) of 7.48 nM, the koff was 0.00123 s⁻¹ and the kon came out at 164000 M⁻¹ s⁻¹.

In turn, B11 came in with a Kd of 17 nM, a koff of 0.000422 s⁻¹ and a kon of 24800 M⁻¹ s⁻¹.

The next assay deals with T3, Human OX40 protein having a His-Tag. Described as above. This is another data set of the same source.
In turn, B1 displayed a Kd of 16.7 nM, a koff of 0.000626 s⁻¹ and a kon of 37500 M⁻¹ s⁻¹.

Take B12: binding was put at a Kd of 69.6 nM, the koff came to 0.00947 s⁻¹ and the kon amounted to 136000 M⁻¹ s⁻¹.

As to B13, the Kd amounted to 22.8 nM, the koff stood at 0.00698 s⁻¹ and the kon worked out at 306000 M⁻¹ s⁻¹.

Molecule B3 yielded a Kd of 50.2 nM, a koff of 0.0136 s⁻¹ and a kon of 270000 M⁻¹ s⁻¹.

The next assay has as its target T4, Cynomolgus/Rhesus macaque OX40/TNFRSF4/CD134 Protein, His Tag (Cynomolgus/Rhesus macaque).
T4 construct: Bought recombinant protein; also called fasOX40-His; monkey OX40
The description is as above.
For the molecule B1, the Kd is 37 nM, the koff is 0.000685 s⁻¹ and the kon stood at 18500 M⁻¹ s⁻¹.

Molecule B12 displayed a Kd of 30.4 nM, a koff of 0.0257 s⁻¹ and a kon of 845000 M⁻¹ s⁻¹.

B13 came in with a dissociation constant (Kd) of 2.48 nM, a koff of 0.000371 s⁻¹ and a kon of 150000 M⁻¹ s⁻¹.

Take B3: the Kd came to 4.91 nM, the koff stood at 0.000205 s⁻¹ and the kon was determined as 41800 M⁻¹ s⁻¹.

In another assay the target is T5, human OX40 expressed on transfected cells (human, UniProt P43489 29-277).
T5 construct: whole, on cells; also called hOX40 on HEK293T-hCTLA4-hOX40 cells; on Jurkat-luc-hOX40
T5 sequence (looked up): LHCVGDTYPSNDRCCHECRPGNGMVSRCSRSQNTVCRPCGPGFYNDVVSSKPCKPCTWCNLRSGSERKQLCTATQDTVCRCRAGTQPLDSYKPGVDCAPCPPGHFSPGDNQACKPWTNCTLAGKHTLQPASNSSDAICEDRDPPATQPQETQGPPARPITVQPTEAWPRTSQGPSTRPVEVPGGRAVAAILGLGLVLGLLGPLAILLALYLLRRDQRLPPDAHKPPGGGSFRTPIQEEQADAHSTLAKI
Nature of the assay: flow cytometry (MFI, anti-hIgG-Fc-Alexa Fluor 647) on HEK293T-hCTLA4-hOX40 cells co-expressing human CTLA4 and human OX40. On the technique in general: Flow cytometry measures light scatter and fluorescence of single cells or particles in a stream.
With B8, the “EC50 (read off the curve)” value was ~5 µg/mL.

By Kd is commonly meant the equilibrium constant for the complex coming apart. Read a high Kd as weaker binding. Usually koff stands for the first-order rate constant of dissociation. A higher koff goes with a short-lived complex. Broadly, the kon is a measure of how fast the partners come together. A higher kon goes with faster complex formation. A word on the EC50 (read off the curve): it is the concentration that produces a half-maximal response. Lower therefore signals higher potency in that assay.

For the origin of these results see US20250115668A1 (BIOCYTOGEN PHARMACEUTICALS BEIJING, published 2025).
